In the supplement of paper PMC12042874:
± gives the uncertainty stated by the source.

Assay: amyloid nucleation score (Sup35N fusion, yeast selection) (log enrichment); library NNK2; higher = more nucleation; inactive = no reads after selection
Procedure, shortened: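 Output and input plasmid inserts were sequenced by Illumina after psi-negative yeast carrying Sup35N fused to peptides of 20 random codons had been induced 24 hours with 100 μM copper sulfate and grown 7 days at 30°C on medium lacking adenine and uracil. The nucleation score is the DiMSum log enrichment of output over input reads, centred on the mode score of non-aggregating sequences. Sequences with under 100 input reads were excluded.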

Substance	amyloid nucleation score
SRSVIFSGESSHHADWFWTV	1.16 ± 0.68
SGYGAAITVNFDITEHGGM	5.06 ± 0.066
TQNTTYNAYMNLKE	-1.24 ± 1.1
HCNLPDWVHGIYMSKS	0.127 ± 0.74
FLPYFNPEVSGIFCVNRMST	-0.971 ± 0.53
GGSLPMFWKIMPGRHCGK	-0.019 ± 0.32
DYFAIRWGQVT	inactive
VTFYLGSSE	0.155 ± 1.1
TLHKLFQMNLGRR	-0.738 ± 0.44
ITLRRLTVITENPLGWNHIT	0.499 ± 0.36
SIIVLRLLY	0.523 ± 0.51
NGQYDDTG	2.32 ± 0.14
VNVNMPWTEERSKSEMSNTW	1.4 ± 0.37
YAEHYWHLDNRTDWGIKEGY	-0.78 ± 0.61
AYILAVVCPVVRKIGSQYDE	1.87 ± 0.15
MFWRSYNWDFSCYCNCSRGR	5.054 ± 0.033
YDVGTPRIRDFLCAIDRGNH	0.106 ± 0.34
ESFAFELTVLHIS	1.11 ± 0.38
SVPDFDRWAFTGRVQTYADC	-0.614 ± 0.79
TDVRGDTSRGLGSFKLFRIM	-0.354 ± 0.76
IRGGHTLSYRVEDKRPTEWG	2.04 ± 0.2
SYFGDFERFSFSCDHER	-0.471 ± 0.61
FTILRDFC	0.152 ± 0.77
VNGSTMFQVMFWLRPVHVIE	-0.119 ± 0.53
DRAVRQFIFLVYGSSLDWDI	0.044 ± 0.79

Substance	amyloid nucleation score
FLTNGESGTMGI	inactive
VISYMFRSTGVFNT	2.73 ± 0.19
MTKCTDHVRVDDVCLHIRGS	-0.255 ± 1.1
NGLGLTIWL	0.448 ± 0.22
TEGYNMCDWCSSSLVKSVRM	-0.223 ± 0.49
ISNVNLTE	-0.763 ± 0.4
CFSCVFIMDCCRH	7.954 ± 0.062
VVELKELAYQGNGIVLIMED	-0.066 ± 0.41
TCIVSRRSCTCNRSQSGYRR	1.08 ± 0.22
CVMSFYPELIILASSFCVPF	-1.22 ± 0.36
NDYEPRCMFGRIVCSNGPEM	1.14 ± 0.42
VSRGGKHGVQIT	inactive
NASYRCNM	inactive
WWEVIRLSLRS	2.04 ± 0.13
GLVFRS	inactive
PSYPSVSRVK	0.151 ± 0.24
GFMFGMLTISLRSVMFVARV	-0.227 ± 0.32
KTRYALPVDQCYMKNRNMLV	0.295 ± 0.51
SYENTSV	0.376 ± 0.66
FNYDIPPVVQGCHISAQLLP	-0.271 ± 0.74
DREFLGDCWVLAELSKTRLI	3.24 ± 0.093
GFRSLNVSRANLCSYIRHLL	0.02 ± 0.44
FFLGDRIWL	inactive
LCRYTCSSLSVYLNNMILCG	1.33 ± 0.13
NNSMYILYSGYTFGCYTRGL	6.38 ± 0.066

Substance	amyloid nucleation score
TRGKRVPPDVLSSPKRIANV	1.12 ± 0.46
IALGLNSYGK	-1.74 ± 0.78
AQTWMAKTISKDAVGGSPLS	0.272 ± 0.56
DVLLVLHVIWCICYPLGVVS	0.429 ± 0.4
GHKDSEDGLNTKFFRRSN	inactive
IYSHESASWWMRRARSS	1.55 ± 0.25
MIFYDAIGWKLGNRGSN	-0.728 ± 0.45
SLTLLGLNR	-0.22 ± 0.22
MIVLIQKGLWGFDLQAVFVP	-0.653 ± 1.1
MLERHKDRTRSGLKRGARET	0.84 ± 0.46
FFLGANGINALQNRSYIQPG	0.007 ± 0.79
VWVKRVDASSCAVS	1.26 ± 0.38
LKIQEPNRYW	-0.945 ± 0.76
SLHRAVYMGVKEYAILTEYG	0.127 ± 0.35
LCCGLFFFVRVY	2.06 ± 0.091
RKIMNGKV	-0.414 ± 0.64
DMGGPTTIY	0.798 ± 0.67
AEYKCAFFMSLNAVALDKRY	3.2 ± 0.12
IVGATYHLSWLPGYTGIYRG	1.25 ± 0.47
TQCRFRTSRVDICKIVKPGS	0.177 ± 0.65
QGSNRACGLSEDCLFTV	0.282 ± 0.22
SLGNVHRLL	-0.246 ± 0.79
HIFCRLRLAGNRLRSCLCNF	-1.16 ± 1.1
IILIYVCRRPCLISQDNAFF	inactive
PLWCSAGALLYWYKYPWFWL	-0.332 ± 0.63

Substance	amyloid nucleation score
ASDRWMVYLIHVTSCYVLRV	-0.062 ± 0.41
FVLNYLI	0.709 ± 0.17
FLFLCGTDTFASRNPGRGKG	0.269 ± 0.51
CISSKHISVGVTDNLVVV	0.436 ± 0.8
FDFRNGCGNTKVEFSMHRSG	2.86 ± 0.21
DCLRCNHYTVCNMYDRFFLL	inactive
SWYILILGFRGKIIYPFRLG	-1.03 ± 0.76
YLLFNLHAVYLLVSGEPSPC	0.405 ± 0.39
VPRFVCTHVDLIFGGNGCTF	4.91 ± 0.075
VDFLLYLVSSTFGRARKWVY	-0.425 ± 0.27
VVYWRWTTPDLRVKAHGLFF	0.438 ± 0.5
REAMTCIFDLKYAGLASVWW	-0.532 ± 1
DGFMLMFFTITIRFPNALQV	inactive
LSNAYRTGFPLICSLNNHRH	1.03 ± 0.68
YNVMDVMYYAQKWLLWWSKV	-0.353 ± 0.41
ILFVLWKLDRRPCSLLEYTQ	0.463 ± 0.56
VSSLFIEDFFFNRTSVMYIG	0.103 ± 0.25
VDLGNYSSYRDFRETRLRPM	0.229 ± 0.39
LCVYNPNVKYVHPCWTASGG	-0.529 ± 0.44
AFIRPIVSLVVLSQGV	0.827 ± 0.6
NMPHPHEFIRSPCICLRHVV	inactive
MLYYNESVINAVVYVKGRCW	-0.012 ± 1.1
EARILIKLLI	2.58 ± 0.091
FWQSSLDSS	0.213 ± 0.38
MGTHKTDGRRQYLVVSSCEV	0.115 ± 1

Substance	amyloid nucleation score
NYLDLFTRVWKS	inactive
RRVYCNIIVSGVCVSGE	1.42 ± 0.12
LIGGLVSPISRYEVGWQDAV	-0.213 ± 0.62
RSDVTLDNIQMWA	-1.38 ± 0.64
QFAYTRSSPVKIYLYNNYGA	8.109 ± 0.037
PLTNSNRPGMKHLSSKQSSV	0.138 ± 0.41
VLYLLKSSSFSTGVNSRCMR	-0.256 ± 1.1
YGMVIRCPARVCVQTLFNNA	4.86 ± 0.094
TRSRKWHRGS	1.14 ± 0.32
YDYVEGAEPPLGDGCIVVFH	-0.451 ± 0.79
TNLRAPEHHSHYCSRLRLD	-0.267 ± 0.35
YVLSYSCLDLYSIHL	5.64 ± 0.073
RLSNELKRMVYSDQVQGYSR	-0.357 ± 0.48
CLPGTCRRCQWGRGIDQSSE	0.317 ± 0.41
FKAYHSGKWTYGHITQRGRI	inactive
GDQPRPKMLLSWHRFLLQQS	0.887 ± 0.19
ITNAYGLIPTNFLCYAFCVI	7.958 ± 0.038
ISLIFCNSTRIYKFLLMFSW	inactive
EYYLSVYSYYCYCLTCMFVI	3.46 ± 0.15
SPDATGYTNKVLGSRLIRRR	1.44 ± 0.38
SYDFSSINRDKTSSSRSLPR	-0.474 ± 1
IVSAMQLEHESQCKFGMNWV	0.082 ± 0.42
GIVFVLLLMNVFEVCRSELM	inactive
CYSLSYLILVCR	5.73 ± 0.041
ISYHSVWDKLFFYVVDFYTS	-0.591 ± 1
